In publication PMC4367193 (Biochemistry, 2009):

What was measured:
Aβ42WT [1] = target: T1, Aβ42WT (Homo sapiens, UniProt P05067); type: biochemical; conditions: 37°C
Aβ42WT [2] = target: T1, Aβ42WT; experiment: Circular dichroism spectroscopy, Aβ42WT β-sheet formation; type: biochemical
Aβ40DI [3] = conditions: previous study; ref [25] Hoos et al. 2007; cited from earlier work
Aβ42WT [4] = target: T1, Aβ42WT; experiment: Thioflavin T fluorescence assay, Aβ42WT fibril formation; type: biochemical; conditions: Aβ42 12.5 μM, MBP 1.56 μM, 37°C, 150 mM NaCl; triplicate
Aβ42WT [5] = target: T1, Aβ42WT; experiment: Attenuated total reflection infrared spectroscopy, Aβ42WT β-sheet formation; type: biochemical; conditions: Aβ42 50 μM in PBS, MBP 6.25 μM, 37°C, 24 h; second-derivative ATR-IR
Aβ42WT [6] = target: T1, Aβ42WT; experiment: Surface plasmon resonance, binding to immobilised Aβ42WT
Aβ [7] = type: binding, human; conditions: soluble cortical homogenate, polyclonal anti-MBP IgG, Fig. 1D
Aβ [8] = type: binding, 5xFAD mouse; conditions: soluble cortical homogenate, polyclonal anti-MBP IgG, Fig. 1D
Aβ40WT = experiment: Surface plasmon resonance, binding to Aβ40WT; conditions: ECP negative control; SPR
MBP/Aβ42WT interaction = experiment: Competitive co-immunoprecipitation, binding of Aβ42WT to MBP; design: species or system human; conditions: data not shown
Aβ40DI [9] = experiment: Surface plasmon resonance, binding to Aβ40DI; conditions: ECP negative control; SPR

T1 sequence (P05067 672-713 limits assumed): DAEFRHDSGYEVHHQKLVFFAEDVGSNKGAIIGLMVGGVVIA

Molecule: Aβ42WT: wild-type Aβ42 peptide, synthesized by solid-phase Fmoc chemistry
- Length of oligomeric structures (Aβ42WT [1]; Aβ42WT alone, 6 h): up to 40 nm
- Average height of fibrillar structures (Aβ42WT [1]; Aβ42WT alone, 24 h): over 4 nm
- Time at which β-sheet formation begins to plateau (CD, 215 nm) (Aβ42WT [2]; Aβ42WT alone 50 μM, 37°C, 11 mM NaCl, results section): 24 h

B1: MBP: Purified human MBP (purchased from Chemicon International) (protein, UniProt P02686 1-304, looked up)
Myelin basic protein: MGNHAGKRELNAEKASTNSETNRGESEKKRNLGELSRTTSEDNEVFGEADANQNNGTSSQDTAVTDSKRTADPKNAWQDAHPADPGSRPHLIRLFSRDAPGREDNTFKDRPSESDELQTIQEDSAATSESLDVMASQKRPSQRHGSKYLATASTMDHARHGFLPRHRDTGILDSIGRFFGGDRGAPKRGSGKDSHHPARTAHYGSLPQKSHGRTQDENPVVHFFKNIVTPRTPPPSQGKGRGLSLSRFSWGAEGQRPGFGYGGRASDYKSAHKGFKGVDAQGTLSKIFKLGGRDSRSGSPMARR
- Inhibition of fibrillar assembly of Aβ40DI (Aβ40DI [3]): effectively inhibits the fibrillar assembly of Aβ40DI
- Thioflavin-T fluorescence in samples containing Aβ42WT and MBP (Aβ42WT [4]): lack of thioflavin-T fluorescence
- β-turn peaks at 1681 and 1675 cm^−1 on addition of MBP (Aβ42WT [5]): remained unchanged even with the addition of MBP
- KD with Aβ42WT compared with Aβ40DI (Aβ42WT [6]; calculated KD between MBP and Aβ42WT versus affinity between MBP and Aβ40DI (ref [25])): comparable to the affinity between MBP and Aβ40DI
- KD with Aβ42WT compared with Aβ40WT (Aβ42WT [6]; calculated KD between MBP and Aβ42WT versus that between MBP and Aβ40WT (ref [25])): stronger than that between MBP and Aβ40WT
- Interaction of MBP with Aβ in human AD brain homogenate (Aβ [7]): MBP can interact with Aβ peptides
- Oligomeric structures at 6 h in the presence of MBP (Aβ42WT [1]; 6 h, AFM and TEM): marked reduction
- Fibrils at 24 h in the presence of MBP (Aβ42WT [1]; 24 h, TEM): noticeably absent
- Absolute CD ellipticity at 215 nm with MBP (Aβ42WT [2]; MBP alone and Aβ42WT (50 μM) with MBP (6.25 μM), 37°C, 0-36 h): remained low and decreased somewhat over the course of incubation
- Conformation of MBP alone by CD (Aβ42WT [2]; MBP alone, throughout the time-course, data not shown): characteristic random-coil conformation
- Interaction of MBP with Aβ in 5xFAD mouse brain homogenate (Aβ [8]): MBP can interact with Aβ peptides

B2: ECP: Eosinophil cationic protein, very similar charge and molecular mass compared to MBP, negative control (protein, UniProt P12724 28-160, looked up)
Eosinophil cationic protein: RPPQFTRAQWFAIQHISLNPPRCTIAMRAINNYRWRCKNQNTFLRTTFANVVNVCGNQSIRCPHNRTLNNCHRSRFRVPLLHCDLINPGAQNISNCTYADRPGRRFYVVACDNRDPRDSPRYPVVPVHLDTTI
- Binding affinity (KD) for Aβ40WT, ECP (Aβ40WT): not detected
- Competition of ECP with MBP for binding to Aβ42 (MBP/Aβ42WT interaction): did not compete for MBP binding to Aβ42
- Detectable binding to Aβ42WT ligand surface (Aβ42WT [6]; concentrations up to 32-fold greater than MBP, SPR): No binding could be detected
- Binding affinity (KD) for Aβ40DI, ECP (Aβ40DI [9]): not detected
